Patent US20260021197A1, “NANOPARTICLES AND PEPTIDES FOR THE DELIVERY OF CARGOS TO CHONDROCYTES” (4BASEBIO UK LTD, priority 2022, published 2026)

Columns and labels:
[1] = Biophysical characterisation of nanoparticles by dynamic light scattering (size, PDI); type: physicochemical
Method: The size in nm by Dynamic Light Scattering (DLS), zeta potential in mV by Electrophoretic Light Scattering (ELS), and concentration of particles per ml by Multi-Angle Dynamic Light Scattering (MADLS) of the closed linear DNA/mRNA-lipid-peptide nanoparticles was determined using the Zetasizer Ultra (Malvern). Complexes were prepared as before, except formulated in nuclease-free water rather than Opti-MEM. Samples containing 0.7 μg hpDNA were diluted in 1 ml for analysis.

[2] = test system: primary human chondrocytes; experiment: Transfection of primary human chondrocytes, luciferase expression; type: cell-based; settings: FIG. 3, mRNA:lipid:peptide nanoparticles, DOTMA-DOPE 2:1 + 10% cholesterol, 4 h post-transfection
Method: (§1) Peptides identified via phage display with affinity toward primary human chondrocytes, and peptides identified in the literature with desirable chondrocyte binding characteristics were synthesised via solid-phase peptide synthetic chemistry in various conformations. A sixteen-lysine tail group was attached using standard synthesis methods (amsbio, UK).
Transfections in primary human chondrocyte cells were performed with a range of peptide: liposome:nucleic acid cargo mass ratios and N/P ratios. Transfections were performed in a 96-well plate at a density of 2000 cells per well seeded 5 days prior to transfection. Charge and mass ratio of components in the transfection complex varied; DNA and mRNA were maintained at a constant mass of 300 ng per well. The molar ratio of the cationic lipid DOTMA to the phospholipid DOPE was kept at 2:1 (DD 2:1), while cholesterol was added at a molar percentage of 10% of the total lipid content. The mass ratio of closed linear DNA:lipid and mRNA:lipid was maintained at 1:3, while the chondrocyte-cell binding peptides were in some cases altered.
(§2) Transfection complexes were formed via electrostatic interaction by vigorous pipetting, before diluting in a final volume of 200 ul per well, with a DNA concentration of 1.5 ng/ul. All dilutions were performed with OptiMEM reduced serum media. Controls included cells with no transfection complexes added (OptiMEM only), along with liposomes encapsulating nucleic acid cargo without peptide.
Transfection complexes were incubated for 30 min at RT before adding to cells. All conditions were performed in triplicate. Cells were incubated at 37° C. for 4 hours, before replacing media with growth media. 48 h post-transfection for DNA and 4 h post-transfection for RNA, the cells were rinsed in PBS, before resuspension in Reporter Lysis buffer (Promega). Plates were incubated at 4° C. for 20 minutes, before −80° C. for 40 minutes. After thawing, luciferase activity was measured following injection of the luciferase assay substrate on the ClarioSTAR plus plate reader (BMG Labtech, Aylesbury, UK). Luciferase expression was normalised to protein content using Pierce BCA Protein Assay, with absorbance measured at 562 nm. Luciferase activity was expressed as Relative Light Units per mg of protein (RLU/mg).

[3] = test system: primary human chondrocytes; experiment: Transfection of primary human chondrocytes, GFP expression by flow cytometry; type: cell-based; settings: closed linear DNA:lipid:peptide nanoparticles, 48 h post-transfection
Method: as §1
Transfections in primary human chondrocyte cells were performed with a range of peptide:liposome:nucleic acid cargo mass ratios and N/P ratios. Transfections were performed in a 96-well plate at a density of 2000 cells per well seeded 5 days prior to transfection. Charge and mass ratio of components in the transfection complex varied; DNA and mRNA were maintained at a constant mass of 300 ng per well. […] The mass ratio of closed linear DNA:lipid and mRNA:lipid was maintained at 1:3, while the chondrocyte-cell binding peptides were in some cases altered.
as §2
Transfection complexes were incubated for 30 min at RT before adding to cells. All conditions were performed in triplicate. Cells were incubated at 37° C. for 4 hours, before replacing media with growth media. 48 h post-transfection, the cells were rinsed in PBS, before incubation in 0.05% Trypsin EDTA (Gibco) to detach the cells. 48 h post-transfection, cells were resuspended in PBS for analysis by flow cytometry using the Aligent Novocyte flow cytometer.

[4] = Ribogreen encapsulation efficiency assay; type: physicochemical; settings: FIG. 4; mRNA:lipid:peptide nanoparticles at N/P ratio 3.98
Method: Encapsulation efficiency (EE %) was measured using Quant-iT™ RiboGreen™ RNA Assay Kit (Invitrogen™, Thermo Fisher Scientific, Waltham, MA, USA). Briefly, mRNA was mixed with RiboGreen™ in a total volume of 100 ul TE buffer (10 mM Tris-HCl, 1 mM EDTA, pH 7.5) per well of a 96-well plate and incubated for 10 minutes at RT in the absence of light. Lipid and peptide components were each diluted in a volume of 50 ul TE buffer before mixing thoroughly with the mRNA-Ribogreen via pipette. Nanocomplexes were incubated for 30 minutes at RT in the absence of light. Encapsulation efficiency was measured by quantifying the fluorescence (λem=520 nm, λex=480 nm) of RNA encapsulated in nanoparticles vs. the fluorescence of naked mRNA complexed with Ribogreen™ reagent using a fluorimeter (ClarioStar, BMG Labtech).

[5] = FIG. 5, closed linear DNA, DOTMA-DOPE 2:1 + 10% cholesterol
[6] = FIG. 1, DOTMA-DOPE 2:1 + 10% cholesterol
[7] = FIG. 6, mRNA, DOTMA-DOPE 2:1 + 10% cholesterol

In the case of “KKKKKKKKKKKKKKKKGACDWRVIIPPRPSAC [HC5 C-N]”, the “average size by DLS” value [1, 5] is reported as 100 nm, the luciferase expression ([2]; N/P ratio 3.48) is reported as 3.2E+11 RLU/mg protein and the luciferase expression ([2]; N/P ratio 4.48) is reported as 4E+11 RLU/mg protein. For the same sequence, the luciferase expression ([2]; N/P ratio 7.48) was 3.3E+11 RLU/mg protein, the luciferase expression ([2]; N/P ratio 8.48) was 2.5E+11 RLU/mg protein and the “GFP expression (% of the cells expressing GFP)” value [3, 6] was 21%. For the same sequence, the “median fluorescence intensity (MFI)” value [3, 6] was 1E+06.
In the case of “KKKKKKKKKKKKKKKKGACHDSQLEALIKFMC [HC4 C-N]”, the “Polydispersity Index (PDI)” value [1, 5] is reported as 0.45.
In the case of “KKKKKKKKKKKKKKKKGACRLDPTSYLRTFWC [HC3 C-N]”, the “average size by DLS” value [1, 7] is reported as 78 nm, the “Polydisperse Index (PDI)” value ([1]; FIG. 6 passage, printed as closed linear DNA, DOTMA-DOPE 2:1 10% cholesterol) is reported as 0.37 and the “GFP expression (% of the cells expressing GFP)” value [3, 6] is reported as 9%. For the same sequence, the “median fluorescence intensity (MFI)” value [3, 6] was 1E+05.
With “KKKKKKKKKKKKKKKKGADWRVIIPPRPSA [HC5 L-N]” the “encapsulation efficacy (% of mRNA encapsulated)” value [4] was 96.86%.
With “KKKKKKKKKKKKKKKKGAHDSQLEALIKFM [HC4 L-N]” the “average size by DLS” value [1, 7] was 36.65 nm.
For “KKKKKKKKKKKKKKKKGARLDPTSYLRTFW [HC3 L-N]”, the “Polydispersity Index (PDI)” value [1, 5] was 0.2 and the “Polydisperse Index (PDI)” value [1, 7] was 0.13.
In the case of “KKKKKKKKKKKKKKKKRVRRCDWRVIIPPRPSAC [HC5 C-C]”, the “average size by DLS” value [1, 5] is reported as 51.37 nm and the “GFP expression (% of the cells expressing GFP)” value ([3]; FIG. 2, C16-DOPE 2:1 with 10% cholesterol) is reported as 24%.
